Measurements reported in patent US20110039771A1 (University of California, published 2011).
Where no end group is shown, it is not given here.

Experiments:
Assay in all cases: dot blot: peptide on nitrocellulose, probed with biotinylated-HN and streptavidin-HRP
[1] = molecular target: T1, humanin (HN) (human)
T1 construct: Unlabelled HN dotted on nitrocellulose as positive control; also called Humanin (M)
T1 peptide: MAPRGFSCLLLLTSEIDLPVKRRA
Experimental: (§1) FIG. 12 HN binds to SHLP2 and SHLP4. 2, 5 and 10 nmol of IGF-1 (negative control), HN, SHLP1, 2 or 4 were dotted on to nitrocellulose membrane and left to dry. The membrane was blocked, incubated with biotinylated-HN and streptavidin-HRP and exposed by autoradiography.
(§2) To test a dimerization hypothesis, we performed a dot-blot using biotinylated-HN. Two, 5 or 10 nmol IGF-I (negative control), HN (positive control) or SHLP peptide were dotted on to nitrocellulose membrane, and their ability to bind to biotinylated-HN was assessed immunologically. […] Specific interactions that occur may be determined using, e.g., dot blots with biotinylated SHLPs, and/or antibodies against specific SHLPs.

[2] = molecular target: T2, SHLP1 (human)
T2 construct: Dotted on nitrocellulose; also called small humanin-like peptide 1; SHLP1 (M)
T2 peptide: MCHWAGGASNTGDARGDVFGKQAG
Experimental: as §1, §2

[3] = molecular target: T3, SHLP2 (human)
T3 construct: Dotted on nitrocellulose; also called small humanin-like peptide 2; SHLP2 (M)
T3 peptide: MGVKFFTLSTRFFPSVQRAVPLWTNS
Experimental: as §1, §2

[4] = molecular target: T4, SHLP4 (human)
T4 construct: Dotted on nitrocellulose; also called small humanin-like peptide 4; SHLP4 (M)
T4 peptide: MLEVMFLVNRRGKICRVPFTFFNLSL
Experimental: as §1, §2

- binding result [1]: binds
- binding result [3]: binds
- binding result [4]: binds
B1: biotinylated-HN (peptide)
peptide: MAPRGFSCLLLLTSEIDLPVKRRA
modifications: also: biotinylated, site not given here
notes: Probe in solution in the dot blot, detected with streptavidin-HRP; also called biotinylated humanin
- binding result [2]: no binding (tested: 2, 5 or 10 nmol dotted)
